Measured values: PMC5170609 (Molecular Biology of the Cell, 2016)

Key:
Test in all cases: ELISA
[1] = molecular target: desmin T453I (recombinant, desminopathy-linked mutant) (UniProt P17661 1-470, T453I)
[2] = molecular target: desmin E245D (recombinant, desminopathy-linked mutant) (UniProt P17661 1-470, E245D)
[3] = molecular target: wild-type full-length desmin (recombinant) (UniProt P17661 1-470)
Sequence of wild-type full-length desmin (recombinant) (P17661 whole entry): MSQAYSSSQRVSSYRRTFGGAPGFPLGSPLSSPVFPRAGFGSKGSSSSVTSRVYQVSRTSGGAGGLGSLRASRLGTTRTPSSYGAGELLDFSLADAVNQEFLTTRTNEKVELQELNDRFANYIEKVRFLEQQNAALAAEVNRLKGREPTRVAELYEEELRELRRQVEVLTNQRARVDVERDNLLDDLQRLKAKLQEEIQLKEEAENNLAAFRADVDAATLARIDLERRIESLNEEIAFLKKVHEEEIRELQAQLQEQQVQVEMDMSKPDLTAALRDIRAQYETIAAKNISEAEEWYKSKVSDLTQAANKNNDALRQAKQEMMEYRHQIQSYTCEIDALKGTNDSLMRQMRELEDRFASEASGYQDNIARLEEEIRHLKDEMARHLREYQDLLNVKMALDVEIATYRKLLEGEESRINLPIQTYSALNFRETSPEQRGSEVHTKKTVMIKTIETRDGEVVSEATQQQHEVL

Sequence of desmin E245D (recombinant, desminopathy-linked mutant) (P17661 whole entry E245D): as the sequence (P17661 whole entry) above, with E245D counted along it
Sequence of desmin T453I (recombinant, desminopathy-linked mutant) (P17661 whole entry T453I): as the sequence (P17661 whole entry) above, with T453I counted along it

B1: His-nebulette modules 1–5 (recombinant) (domain or fragment, UniProt O76041 32-213, looked up)
chain: PVIEDLSMELARKCTELISDIRYKEEFKKSKDKCTFVTDSPMLNHVKNIGAFISEAKYKGTIKADLSNSLYKRMPATIDSVFAGEVTQLQSEVAYKQKHDAAKGFSDYAHMKEPPEVKHAMEVNKHQSNISYRKDVQDTHTYSAELDRPDIKMATQISKIISNAEYKKGQGIMNKEPAVIGR
- Kd [1]: 3 nM
- Kd [2]: 5 to 6 nM
- Kd [3]: 16 to 24 nM
